Measurements reported in PMC10610913, “Saturation mutagenesis of α-synuclein reveals monomer fold that modulates aggregation” (Science Advances, 2023).

Target: the molecule itself
Assay: FRET or BRET; HEK293T biosensor cells co-expressing the CFP and the YFP fusion of one aSyn variant, seeded with increasing amounts of sonicated recombinant full-length aSyn(WT) fibrils with Lipofectamine 2000, 48 h, CFP-YFP FRET by flow cytometry, normalized to aSyn(WT) with 100 nM fibrils

B1: aSyn amino acids 35 to 110, CFP/YFP (domain or fragment)
chain: not shown
fold sensitivity of the biosensor against full-length WT aSyn: ≥ 4 fold
